From patent US20110293613A1 (Hoffmann-La Roche, published 2011)

Key:
[1] = biological target: T1, human Insulin-like growth factor I receptor (IGF-1R) on tumor cells (human, UniProt P08069 31-1367); experiment: competitive FACS binding on TC-71 cells, competitor labeled <IGF-1R> HUMAB Clone 18, Exp. #2
T1 construct: Endogenously expressed on the human tumor cell lines; also called IGF-IR; CD 221 antigen

[2] = biological target: T1, human Insulin-like growth factor I …; experiment: competitive FACS binding on A549 cells, competitor labeled <IGF-1R> HUMAB Clone 18, Exp. #1
[3] = biological target: T1, human Insulin-like growth factor I …; experiment: competitive FACS binding on TC-71 cells, competitor labeled <IGF-1R> HUMAB Clone 18, Exp. #1
[4] = biological target: T1, human Insulin-like growth factor I …; experiment: competitive FACS binding on A549 cells, competitor labeled <IGF-1R> HUMAB Clone 18, Exp. #2

T1 sequence (P08069 31-1367 limits assumed): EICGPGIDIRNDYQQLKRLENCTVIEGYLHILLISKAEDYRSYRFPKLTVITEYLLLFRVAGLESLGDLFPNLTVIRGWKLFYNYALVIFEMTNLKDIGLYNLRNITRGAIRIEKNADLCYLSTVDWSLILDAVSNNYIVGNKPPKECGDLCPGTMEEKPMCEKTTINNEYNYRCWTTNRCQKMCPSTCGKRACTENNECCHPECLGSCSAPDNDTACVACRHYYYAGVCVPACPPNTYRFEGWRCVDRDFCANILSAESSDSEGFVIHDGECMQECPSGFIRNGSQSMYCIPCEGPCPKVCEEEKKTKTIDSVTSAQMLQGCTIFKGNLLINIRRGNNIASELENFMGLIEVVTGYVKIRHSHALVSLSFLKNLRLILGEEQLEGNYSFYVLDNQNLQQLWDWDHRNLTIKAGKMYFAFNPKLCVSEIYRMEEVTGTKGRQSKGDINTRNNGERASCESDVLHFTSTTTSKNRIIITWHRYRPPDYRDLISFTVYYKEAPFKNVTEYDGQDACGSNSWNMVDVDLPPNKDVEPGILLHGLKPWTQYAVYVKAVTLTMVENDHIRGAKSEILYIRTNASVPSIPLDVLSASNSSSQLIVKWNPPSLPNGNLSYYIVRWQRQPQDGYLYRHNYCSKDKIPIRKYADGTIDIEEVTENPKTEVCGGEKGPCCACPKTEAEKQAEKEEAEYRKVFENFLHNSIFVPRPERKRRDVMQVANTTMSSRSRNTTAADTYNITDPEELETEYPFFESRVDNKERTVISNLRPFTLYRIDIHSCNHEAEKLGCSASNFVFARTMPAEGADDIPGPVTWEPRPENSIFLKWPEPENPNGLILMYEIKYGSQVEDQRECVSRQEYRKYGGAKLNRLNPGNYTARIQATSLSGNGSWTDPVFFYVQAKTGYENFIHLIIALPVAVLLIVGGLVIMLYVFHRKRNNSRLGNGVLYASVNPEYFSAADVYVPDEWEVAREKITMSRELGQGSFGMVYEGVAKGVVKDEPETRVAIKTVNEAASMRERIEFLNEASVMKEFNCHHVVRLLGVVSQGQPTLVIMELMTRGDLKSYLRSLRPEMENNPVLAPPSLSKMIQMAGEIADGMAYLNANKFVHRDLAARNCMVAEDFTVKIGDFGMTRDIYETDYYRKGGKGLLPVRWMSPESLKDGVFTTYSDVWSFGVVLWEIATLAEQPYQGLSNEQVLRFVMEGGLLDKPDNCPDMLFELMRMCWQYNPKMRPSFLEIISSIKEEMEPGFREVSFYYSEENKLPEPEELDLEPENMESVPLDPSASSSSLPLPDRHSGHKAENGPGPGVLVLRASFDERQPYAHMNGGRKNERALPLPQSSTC

B1: human anti-IGF-1R antibody <IGF-1R> HUMAB Clone 18 (DSM ACC 2587) (antibody, V domains shown)
VH: QVELVESGGGVVQPGRSQRLSCAASGFTFSSYGMHWVRQAPGKGLEWVAIIWFDGSSTYYADSVRGRFTISRDNSKNTLYLQMNSLRAEDTAVYFCARELGRRYFDLWGRGTLVSVSS
VL: EIVLTQSPATLSLSPGERATLSCRASQSVSSYLAWYQQKPGQAPRLLIYDASKRATGIPARFSGSGSGTDFTLTISSLEPEDFAVYYCQQRSKWPPWTFGQGTKVESK
- IC50 [1]: 1.5 nM
- IC50 [2]: 1.6 nM
- IC50 [3]: 1.4 nM
- IC50 [4]: 1.5 nM
